Test results taken from patent US9951110B2, “Neuropeptides useful as insecticides” (THE STATE OF ISRAEL, MINISTRY OF AGRICULTURE & RURAL …, priority 2013, dated 2018).
Ends that are not written are not given here.

Legend:
[1] = system: Heliothis peltigera female moths; experiment: Topical application of agonistic peptides: stimulation of sex pheromone biosynthesis (solvent effect on penetrability); format: in vivo
Description: FIG. 6. is a graph showing the effect of a topically applied peptide (Peptide 12 in Table 1) on stimulation of sex pheromone biosynthesis in Heliothis peltigera female moths. • The peptide was tested at a concentration of 300 pmol and was applied in DDW, DMSO and IIS for different times (ranging from 0.5 to 7 h). • Statistical analysis compared pheromone content in the presence of the peptide in a given solvent (DDW, DMSO or IIS) at different time points (indicated by small black letters) and between solvents at the same time point (indicated by capital light grey letters). […] FIG. 7A and FIG. 7B are graphs showing the dose-response of a topically applied peptide [Peptide 12 (7A) and Peptide 11 (7B)] on stimulation of sex pheromone biosynthesis in Heliothis peltigera female moths. The peptide was tested at the indicated concentrations and was applied in DDW, IIS and DMSO for 3 h. • Statistical analysis compared pheromone content in the presence of the peptide in a given solvent (DDW, DMSO or IIS) at different concentrations (indicated by black letters) and between solvents at the same concentration (indicated by capital light grey letters). […] The tested peptides are applied onto the insect (e.g. moths) at scotophase (when pheromone is naturally synthesized) in a given solvent for the indicated times. Examination of the effect of carrier solvent on penetrability and activity was tested as a function of time and concentration with peptides 11 and 12 (see Table 1) which are agonistic peptides, i.e. stimulate sex pheromone production in female moths.

[2] = system: Heliothis peltigera female moths; experiment: Environmental (outdoor storage) stability, read out as sex pheromone production after injection; format: physicochemical; details: for stability: pheromone-stimulating activity after storage vs peptide stored at -80° C.: direct sunlight, about 31° C.; for stability in the course of storage: 4 weeks
Description: FIG. 9. is a graph showing the stability of Peptide 12 in a powder form under different storage conditions. • The stability was evaluated by determining sex pheromone production in Heliothis peltigera females exposed to said peptide. • The storage conditions are: (i) exposure to direct sunlight and an average temperature of about 31° C. for 1 week (“outdoor 1 week”); (ii) room temperature (RT); and (iii) −80° C. • Sex pheromone content is expressed as a percentage of the pheromone content obtained by injection of a peptide stored at −80° C. (defined as 100%). Statistical analysis compared pheromone content generated by injection of a peptide stored at room temperature (RT) for 1 week or a peptide kept for 1 week outdoors with that of the control (a peptide stored at −80° C.). […] FIG. 10A and FIG. 10B are graphs showing the stability of Peptide 12 dissolved in DDW or ITS at a concentration of 1 nmol (10A) or 100 pmol (10B) under different storage conditions. • The stability was evaluated by determining sex pheromone production in Heliothis peltigera females exposed to said peptide. • The storage conditions are: (i) exposure to direct sunlight and an average temperature of about 31° C. for 1 week (“outdoor 1 week”); and (ii) −80° C. • Sex pheromone content is expressed as a percentage of the pheromone content obtained by injection of a peptide stored as a dry powder at −80° C. (defined as 100%). Statistical analysis compared the pheromone content generated by the different treatments with that of the control (a peptide stored at −80° C.). […] FIG. 11A and FIG. 11B are graphs showing the stability of Peptide 12 dissolved in DDW (A) or IIS (B) at a concentration of 1 nmol, and exposed to direct sunlight and temperatures in the range of 27° C. to 31° C. for 1-4 weeks or by a peptide stored at 4° C. for 1-4 weeks. • The stability was evaluated by determining sex pheromone production in Heliothis peltigera females exposed to said peptide. • Activity is expressed as a percentage of that obtained by Peptide 12 stored at −80° C. (defined as 100%, not shown in the figures). • Statistical analysis compared activity at the same storage time at 4° C. and outdoor, and as a function of time within the same treatment (outdoor or 4° C.) as a function of storage time (capital letters). […] This assay is used to test the agonistic properties of the tested peptides (in adult females), and to determine the peptides melanotropic agonistic or antagonistic properties (in larvae). It was also used to determine the activity of peptides that were stored outdoors for different amounts of time. In order to evaluate the environmental stability of the peptides, peptide 12 (in Table 1) was tested. Stability was monitored by exposing a tube containing the peptide, either in the form of a dry powder or in solution made up in either DDW or IIS at a concentration of 100 pmol or 1 nmol, to direct sun light and a temperature range of 27 to 31° C. (“outdoor”). […] Similar results were obtained at a lower dose of the peptide, of 100 pmol (FIG. 10B). The peptide was also tested for stability for 4 weeks when dissolved in either DDW or IIS, at a concentration of 1 nmol, under the same conditions as above at a temperature range of 27° C. to 31° C.

Substance	stimulation of sex pheromone biosynthesis: effect of carrier on bioavailability ([1]; 300 pmol, DDW, DMSO and IIS, 0.5 to 7 h)	stimulation of sex pheromone biosynthesis, dose response by carrier ([1]; 3 h, DDW, IIS, DMSO)	stability: pheromone-stimulating activity after storage vs peptide stored at -80° C. ([2]; dissolved in DDW or IIS, 100 pmol, 1 week)	activity of peptide kept outdoor vs at 4° C. at the same storage time ([2]; dissolved in DDW or IIS, 1 nmol, 1-4 weeks)	stability: pheromone-stimulating activity after storage vs peptide stored at -80° C. ([2]; dissolved in DDW or IIS, 1 nmol, 1 week)	stability in the course of storage ([2]; dissolved in DDW, 1 nmol, outdoor 27° C. to 31° C. or 4° C.)	stability in the course of storage ([2]; dissolved in IIS, 1 nmol, outdoor 27° C. to 31° C.)	stability: pheromone-stimulating activity after storage vs peptide stored at -80° C. ([2]; dry powder, 1 week, or room temperature)	stimulation of sex pheromone biosynthesis ([1]; 3 h, in DDW and IIS)	stimulation of sex pheromone biosynthesis ([1]; 3 h, in DMSO)
Acetyl-Tyr-Phe-Trp-Pro-Arg-Leu-amide (Ac-YFWPRL-NH2) [Peptide 12, agonistic peptide lacking a dPhe residue, tested for bioavailability and environmental stability]	IIS has been found to be the best carrier	higher activity in IIS compared to DDW or DMSO	no significant difference	No differences	no significant difference	the activity dropped in the course of storage	much more stable	no significant difference	–	–
Tyr-Phe-Trp-Pro-Arg-Leu-amide (YFWPRL-NH2) [Peptide 11, agonistic peptide lacking a dPhe residue, tested for bioavailability]	–	–	–	–	–	–	–	–	barely any activity	very active
